One molecule from article PMC12443421 (2025) can be followed below.

The target of test [1] is wild-type unmodified 147 bp nucleosome (nucleosome core particle) (human, UniProt P04908 1-130; P62807 1-126; Q71DI3 1-136; P62805 1-103).
Test [2] has as its target wild-type 185 bp nucleosome (with symmetric flanking DNA) (human, UniProt P04908 1-130; P62807 1-126; Q71DI3 1-136; P62805 1-103).

B1: KDM5A^CAT (lysine demethylase 5A, residues 1-801) (domain or fragment)
chain: MAGVGPGGYAAEFVPPPECPVFEPSWEEFTDPLSFIGRIRPLAEKTGICKIRPPKDWQPPFACEVKSFRFTPRVQRLNELEAMTRVRLDFLDQLAKFWELQGSTLKIPVVERKILDLYALSKIVASKGGFEMVTKEKKWSKVGSRLGYLPGKGTGSLLKSHYERILYPYELFQSGVSLMGVQMPNLDLKEKVEPEVLSTDTQTSPEPGTRMNILPKRTRRVKTQSESGDVSRNTELKKLQIFGAGPKVVGLAMGTKDKEDEVTRRRKVTNRSDAFNMQMRQRKGTLSVNFVDLYVCMFCGRGNNEDKLLLCDGCDDSYHTFCLIPPLPDVPKGDWRCPKCVAEECSKPREAFGFEQAVREYTLQSFGEMADNFKSDYFNMPVHMVPTELVEKEFWRLVSSIEEDVIVEYGADISSKDFGSGFPVKDGRRKILPEEEEYALSGWNLNNMPVLEQSVLAHINVDISGMKVPWLYVGMCFSSFCWHIEDHWSYSINYLHWGEPKTWYGVPSHAAEQLEEVMRELAPELFESQPDLLHQLVTIMNPNVLMEHGVPVYRTNQCAGEFVVTFPRAYHSGFNQGYNFAEAVNFCTADWLPIGRQCVNHYRRLRRHCVFSHEELIFKMAADPECLDVGLAAMVCKELTLMTEEETRLRESVVQMGVLMSEEEVFELVPDDERQCSACRTTCFLSALTCSCNPERLVCLYHPTDLCPCPMQKKCLRYRYPLEDLPSLLYGVKVRAQSYDTWVSRVTEALSANFNHKKDLIELRVMLEDAEDRKYPENDLFRKLRDAVKEAETCASVAQLL
Regarding B1, the dissociation constant (Kd) in test [1] came out at 4 µM; in test [2] it was 3 µM.
